Reference: the supplement of paper PMC10724198
± gives the standard deviation of the averaged measurements.

Key:
[1] = system: Saccharomyces cerevisiae; test: protein stability index of tFT-peptide fusion (C-terminal peptide) (PSI (0-1 scale)); higher = more stable (slower turnover)
Experimental: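 MPS profiling in S. cerevisiae of the tFT-X12 degron library: putative degron peptides plus stable controls, 12 aa, fused to the C-terminus of a sfGFP-mCherry timer. Cells are FACS-sorted into 8 mCherry/sfGFP bins and deep-sequenced. PSI runs from 0 (unstable) to 1 (stable). Backgrounds are wild type, das1Δ and doa10Δ at 30 °C, and wild type, das1Δ, cdc34-1 and cdc53-1 at 37 °C; 2-3 technical replicates each.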

[2] = system: Saccharomyces cerevisiae; test: as above; conditions: genetic background: wild type; temperature: 30 C
[3] = genetic background: cdc34-1, temperature: 37 C
[4] = genetic background: cdc53-1, temperature: 37 C
[5] = genetic background: das1 deletion, temperature: 30 C
[6] = genetic background: das1 deletion, temperature: 37 C
[7] = genetic background: doa10 deletion, temperature: 30 C
[8] = genetic background: wild type, temperature: 30 C
[9] = genetic background: wild type, temperature: 37 C
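Also: PSI is a weighted mean of sequencing reads over stability bins, variants kept only with over 10 reads, mCherry proximal and sfGFP distal, peptide attached via GGGS linker.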

## VYRRKLDRLLCI
[1]; [3]
  protein stability index: 0.561 ± 0.029
[1]; [4]
  protein stability index: 0.615 ± 0.025
[1]; [5]
  protein stability index: 0.512 ± 0.021
[1]; [6]
  protein stability index: 0.652 ± 0.0088
[1]; [7]
  protein stability index: 0.171 ± 0.012
[1]; [8]
  protein stability index: 0.182 ± 0.035
[1]; [9]
  protein stability index: 0.275 ± 0.005
[2]
  protein stability index: 0.332 ± 0.1

## WCAGCLGWWLQS
[1]; [3]
  protein stability index: 0.683 ± 0.059
[1]; [4]
  protein stability index: 0.8029 ± 0.003
[1]; [5]
  protein stability index: 0.694 ± 0.015
[1]; [6]
  protein stability index: 0.791 ± 0.014
[1]; [7]
  protein stability index: 0.246 ± 0.01
[1]; [8]
  protein stability index: 0.316 ± 0.038
[1]; [9]
  protein stability index: 0.548 ± 0.012
[2]
  protein stability index: 0.415 ± 0.028

## RLSGACILLSLV
[1]; [3]
  protein stability index: 0.634 ± 0.045
[1]; [4]
  protein stability index: 0.694 ± 0.015
[1]; [5]
  protein stability index: 0.553 ± 0.03
[1]; [6]
  protein stability index: 0.681 ± 0.0082
[1]; [7]
  protein stability index: 0.217 ± 0.0063
[1]; [8]
  protein stability index: 0.259 ± 0.022
[1]; [9]
  protein stability index: 0.439 ± 0.026
[2]
  protein stability index: 0.388 ± 0.081

## VLLMFFFRFSAL
[1]; [3]
  protein stability index: 0.589 ± 0.053
[1]; [4]
  protein stability index: 0.717 ± 0.014
[1]; [5]
  protein stability index: 0.545 ± 0.033
[1]; [6]
  protein stability index: 0.685 ± 0.02
[1]; [7]
  protein stability index: 0.483 ± 0.011
[1]; [8]
  protein stability index: 0.491 ± 0.022
[1]; [9]
  protein stability index: 0.624 ± 0.013
[2]
  protein stability index: 0.523 ± 0.049

## VLAFFPLFFFLS
[1]; [3]
  protein stability index: 0.434 ± 0.035
[1]; [4]
  protein stability index: 0.5049 ± 0.0042
[1]; [5]
  protein stability index: 0.439 ± 0.033
[1]; [6]
  protein stability index: 0.5732 ± 0.0029
[1]; [7]
  protein stability index: 0.144 ± 0.013
[1]; [8]
  protein stability index: 0.126 ± 0.015
[1]; [9]
  protein stability index: 0.245 ± 0.0039
[2]
  protein stability index: 0.2054 ± 0.002

## FLSLPLFILFLS
[1]; [3]
  protein stability index: 0.229 ± 0.036
[1]; [4]
  protein stability index: 0.232 ± 0.041
[1]; [5]
  protein stability index: 0.283 ± 0.029
[1]; [6]
  protein stability index: 0.39 ± 0.02
[1]; [7]
  protein stability index: 0.1217 ± 0.00068
[1]; [8]
  protein stability index: 0.0821 ± 0.013
[1]; [9]
  protein stability index: 0.119 ± 0.0033
[2]
  protein stability index: 0.132 ± 0.014

## PLVLPPINLFLV
[1]; [3]
  protein stability index: 0.575 ± 0.071
[1]; [4]
  protein stability index: 0.729 ± 0.025
[1]; [5]
  protein stability index: 0.63 ± 0.017
[1]; [6]
  protein stability index: 0.7373 ± 0.0008
[1]; [7]
  protein stability index: 0.0842 ± 0.029
[1]; [8]
  protein stability index: 0.114 ± 0.019
[1]; [9]
  protein stability index: 0.136 ± 0.021
[2]
  protein stability index: 0.189 ± 0.0031

## GLLSLSGLRWFC
[1]; [3]
  protein stability index: 0.672 ± 0.051
[1]; [4]
  protein stability index: 0.74727 ± 0.00044
[1]; [5]
  protein stability index: 0.659 ± 0.021
[1]; [6]
  protein stability index: 0.763 ± 0.022
[1]; [7]
  protein stability index: 0.163 ± 0.021
[1]; [8]
  protein stability index: 0.19 ± 0.035
[1]; [9]
  protein stability index: 0.462 ± 0.012
[2]
  protein stability index: 0.276 ± 0.11

## LHRLRFTLVQVS
[1]; [3]
  protein stability index: 0.171 ± 0.0037
[1]; [4]
  protein stability index: 0.196 ± 0.036
[1]; [5]
  protein stability index: 0.228 ± 0.032
[1]; [6]
  protein stability index: 0.32664 ± 0.00013
[1]; [7]
  protein stability index: 0.127 ± 0.018
[1]; [8]
  protein stability index: 0.163 ± 0.021
[1]; [9]
  protein stability index: 0.2 ± 0.0028
[2]
  protein stability index: 0.223 ± 0.022

## SGMLVYFGTVCY
[1]; [3]
  protein stability index: 0.502 ± 0.0077
[1]; [4]
  protein stability index: 0.599 ± 0.13
[1]; [5]
  protein stability index: 0.341 ± 0.03
[1]; [6]
  protein stability index: 0.577 ± 0.014
[1]; [7]
  protein stability index: 0.318 ± 0.028
[1]; [8]
  protein stability index: 0.357 ± 0.0091
[1]; [9]
  protein stability index: 0.511 ± 0.027
[2]
  protein stability index: 0.4498 ± 0.0028

## VWFFLLSFANRL
[1]; [3]
  protein stability index: 0.4767 ± 0.0035
[1]; [4]
  protein stability index: 0.5386 ± 0.004
[1]; [5]
  protein stability index: 0.465 ± 0.043
[1]; [6]
  protein stability index: 0.517 ± 0.0083
[1]; [7]
  protein stability index: 0.466 ± 0.029
[1]; [8]
  protein stability index: 0.45 ± 0.0099
[1]; [9]
  protein stability index: 0.4845 ± 0.00053
[2]
  protein stability index: 0.476 ± 0.015

## SWVVLVSFLSWR
[1]; [3]
  protein stability index: 0.2561 ± 0.0015
[1]; [4]
  protein stability index: 0.3502 ± 0.0028
[1]; [5]
  protein stability index: 0.245 ± 0.031
[1]; [6]
  protein stability index: 0.4285 ± 0.003
[1]; [7]
  protein stability index: 0.233 ± 0.0082
[1]; [8]
  protein stability index: 0.232 ± 0.032
[1]; [9]
  protein stability index: 0.424 ± 0.031
[2]
  protein stability index: 0.357 ± 0.0065

## VPSPWVFSLFLH
[1]; [3]
  protein stability index: 0.594 ± 0.059
[1]; [4]
  protein stability index: 0.689 ± 0.0095
[1]; [5]
  protein stability index: 0.604 ± 0.025
[1]; [6]
  protein stability index: 0.73 ± 0.012
[1]; [7]
  protein stability index: 0.14 ± 0.0025
[1]; [8]
  protein stability index: 0.139 ± 0.0022
[1]; [9]
  protein stability index: 0.283 ± 0.016
[2]
  protein stability index: 0.242 ± 0.033

## SPLLPPPLLFLS
[1]; [3]
  protein stability index: 0.596 ± 0.056
[1]; [4]
  protein stability index: 0.7307 ± 0.0032
[1]; [5]
  protein stability index: 0.6555 ± 0.0025
[1]; [6]
  protein stability index: 0.729 ± 0.009
[1]; [7]
  protein stability index: 0.1475 ± 0.0013
[1]; [8]
  protein stability index: 0.168 ± 0.033
[1]; [9]
  protein stability index: 0.241 ± 0.033
[2]
  protein stability index: 0.211 ± 0.0097

## VLVFYFCFSFCS
[1]; [3]
  protein stability index: 0.144 ± 0.013
[1]; [4]
  protein stability index: 0.282 ± 0.043
[1]; [5]
  protein stability index: 0.126 ± 0.025
[1]; [6]
  protein stability index: 0.297 ± 0.0048
[1]; [7]
  protein stability index: 0.11 ± 0.015
[1]; [8]
  protein stability index: 0.129 ± 0.029
[1]; [9]
  protein stability index: 0.273 ± 0.016
[2]
  protein stability index: 0.205 ± 0.049

## LVCSRFLFAFHC
[1]; [3]
  protein stability index: 0.45678 ± 0.00016
[1]; [4]
  protein stability index: 0.686 ± 0.022
[1]; [5]
  protein stability index: 0.604 ± 0.037
[1]; [6]
  protein stability index: 0.699 ± 0.014
[1]; [7]
  protein stability index: 0.076 ± 0.0097
[1]; [8]
  protein stability index: 0.0796 ± 0.0047
[1]; [9]
  protein stability index: 0.104 ± 0.012
[2]
  protein stability index: 0.145 ± 0.011

## LGLLIFQWARVL
[1]; [3]
  protein stability index: 0.302 ± 0.015
[1]; [4]
  protein stability index: 0.5 ± 0.0084
[1]; [5]
  protein stability index: 0.405 ± 0.026
[1]; [6]
  protein stability index: 0.553 ± 0.0056
[1]; [7]
  protein stability index: 0.0666 ± 0.012
[1]; [8]
  protein stability index: 0.0808 ± 0.016
[1]; [9]
  protein stability index: 0.092 ± 0.0037
[2]
  protein stability index: 0.12 ± 0.035

## LPPSTFLLHFLL
[1]; [3]
  protein stability index: 0.667 ± 0.046
[1]; [4]
  protein stability index: 0.714 ± 0.011
[1]; [5]
  protein stability index: 0.656 ± 0.013
[1]; [6]
  protein stability index: 0.744 ± 0.0099
[1]; [7]
  protein stability index: 0.218 ± 0.018
[1]; [8]
  protein stability index: 0.232 ± 0.026
[1]; [9]
  protein stability index: 0.415 ± 0.0062
[2]
  protein stability index: 0.317 ± 0.0077

## NRFRLFRLNFSV
[1]; [3]
  protein stability index: 0.68 ± 0.042
[1]; [4]
  protein stability index: 0.724 ± 0.052
[1]; [5]
  protein stability index: 0.606 ± 0.02
[1]; [6]
  protein stability index: 0.751 ± 0.014
[1]; [7]
  protein stability index: 0.161 ± 0.0037
[1]; [8]
  protein stability index: 0.168 ± 0.024
[1]; [9]
  protein stability index: 0.36 ± 0.049
[2]
  protein stability index: 0.302 ± 0.015

## ICQLLKFPLFWC
[1]; [3]
  protein stability index: 0.542 ± 0.025
[1]; [4]
  protein stability index: 0.567 ± 0.024
[1]; [5]
  protein stability index: 0.521 ± 0.024
[1]; [6]
  protein stability index: 0.7207 ± 0.0058
[1]; [7]
  protein stability index: 0.311 ± 0.019
[1]; [8]
  protein stability index: 0.288 ± 0.026
[1]; [9]
  protein stability index: 0.4916 ± 0.0032
[2]
  protein stability index: 0.113 ± 0.034

## VVSGLNYCLVLS
[1]; [3]
  protein stability index: 0.48 ± 0.033
[1]; [4]
  protein stability index: 0.48 ± 0.029
[1]; [5]
  protein stability index: 0.29 ± 0.042
[1]; [6]
  protein stability index: 0.523 ± 0.006
[1]; [7]
  protein stability index: 0.276 ± 0.013
[1]; [8]
  protein stability index: 0.28 ± 0.039
[1]; [9]
  protein stability index: 0.4829 ± 0.0021
[2]
  protein stability index: 0.3917 ± 0.0038

## TGYRYVGRFFVV
[1]; [3]
  protein stability index: 0.653 ± 0.037
[1]; [4]
  protein stability index: 0.723 ± 0.039
[1]; [5]
  protein stability index: 0.588 ± 0.016
[1]; [6]
  protein stability index: 0.691 ± 0.016
[1]; [7]
  protein stability index: 0.155 ± 0.0032
[1]; [8]
  protein stability index: 0.163 ± 0.02
[1]; [9]
  protein stability index: 0.329 ± 0.011
[2]
  protein stability index: 0.248 ± 0.01

## RSLSWCTKRRCC
[1]; [3]
  protein stability index: 0.595 ± 0.044
[1]; [4]
  protein stability index: 0.7011 ± 0.0057
[1]; [5]
  protein stability index: 0.675 ± 0.016
[1]; [6]
  protein stability index: 0.71892 ± 0.00035
[1]; [7]
  protein stability index: 0.221 ± 0.015
[1]; [8]
  protein stability index: 0.226 ± 0.022
[1]; [9]
  protein stability index: 0.454 ± 0.013
[2]
  protein stability index: 0.3718 ± 0.00091
